Experiment [1] has as its target Drosophila Numb PTB domain (aa 65-203) (Drosophila) (UniProt P16554). The experiment can be described thus: ITC; Pon fragments (~0.5 mM) injected into PTB proteins (~0.05 mM); 20 °C; 50 mM Tris pH 8.0, 100 mM NaCl, 1 mM EDTA, 1 mM β-ME; one-site binding model.
The target of experiment [2] is T1, Numb PTB R171A (Drosophila, UniProt P16554-1 65-203, R171A).
T1 sequence: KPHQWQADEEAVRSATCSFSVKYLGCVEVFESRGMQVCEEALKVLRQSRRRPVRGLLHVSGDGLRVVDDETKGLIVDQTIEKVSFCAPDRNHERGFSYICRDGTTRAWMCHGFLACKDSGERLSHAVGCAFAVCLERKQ
The description is as above.

For experiment [3], the target named is Drosophila Numb PTB domain (aa 65-203) (Drosophila) (UniProt P16554).
The target is the same in experiment [4]. The source holds these as a separate data set.
Experiment [5] has as its target Drosophila Numb PTB domain (aa 65–203), P16554-1. The experiment is described as follows: ITC. The note with it: parent: 1.80 ± 0.17.
Experiment [6] has as its target T2, Drosophila Numb PTB domain (aa 65–203) (Drosophila, UniProt P16554-1 65-203).
T2 chain: T1 sequence with A107R
The experiment can be described thus: ITC.

The target of experiment [7] is T3, Drosophila Numb PTB domain (aa 65-203) (Drosophila, UniProt P16554-1 65-203).
T3 construct: Numb, Drosophila, PTB domain, residues 65-203; theoretical mass 15.7 kDa in the ultracentrifugation; also called dNumb PTB; Numb 65-203; source: E. coli BL21 (DE3), purified (Ni2+-NTA, SEC); not shown: His tag, N-terminal, cleaved
T3 sequence (looked up): T1 sequence with A107R
The experiment is described as follows: ITC; Pon fragments (~0.5 mM) injected into PTB proteins (~0.05 mM); 20 °C; 50 mM Tris pH 8.0, 100 mM NaCl, 1 mM EDTA, 1 mM β-ME; one-site binding model. The conditions noted are these: both partners purified.

Experiment [8] concerns the target T4, Drosophila Numb PTB domain (aa 65–203) (Drosophila, UniProt P16554-1 65-203).
T4 construct: Numb PTB domain, Drosophila, Uniprot P16554-1, aa 65-203; source: E. coli BL21 (DE3), purified (Ni2+-NTA, SEC); not shown: His tag, N-terminal, cleaved
T4 sequence (looked up): T1 sequence with A107R
The experiment can be described thus: AUC; sedimentation velocity, 42,000 rpm, 4 °C, interference detection, SEDFIT; Numb PTB with three molar ratios of Nak AB, or with Pon A2B2. The note with it: both partners purified.

Experiment [9] addresses T2, Drosophila Numb PTB domain (aa 65–203). The experiment is described as follows: ITC.
The target of experiment [10] is T1, Numb PTB R171A. The experiment is described as follows: ITC.
For experiment [11], the target named is T4, Drosophila Numb PTB domain (aa 65–203). The experiment is described as follows: ITC; ITC200, 20 °C, buffer A (50 mM Tris pH 8.0, 1 mM EDTA, 1 mM β-ME, 100 mM NaCl); Pon fragments (~0.5 mM) injected into PTB proteins (~0.05 mM); one-site binding model. The conditions noted are these: both partners purified.

Where a chain is given by its changes, count along the chain named. Names may count otherwise. Square brackets hold non-standard residues; d marks the D form. Ends that are not written are not given here. pT = C[C@@H](OP(=O)(O)O)[C@H](N)C(=O)O A value given as a limit tells only on which side of the number the result lay.

We go through 25 molecules from PMC5821850, “Basal condensation of Numb and Pon complex via phase transition during Drosophila neuroblast asymmetric division” (Nature Communications, 2018).

Pon A2B2 N152P153A (domain or fragment): the dissociation constant Kd in experiment [1] worked out at 48.3 µM.
In experiment [1], Pon 157-200 (A3B3) (domain or fragment) displayed a dissociation constant (Kd) of 12.2 µM.
Turning to Pon 130-162 (A2B2) (domain or fragment), the Kd in experiment [1] is 1 µM; with Numb PTB R171A [2], above 100 µM.
Turning to “Pon N-terminal fragment (aa 1–228), A1B1A2B2A3B3 (domain or fragment)”, in experiment [3], the in vitro phase transition, sedimentation assay: share of Numb PTB and Pon A1B3 recovered from the condensed liquid phase, 1:1 mixture, 25 to 100 μM worked out at 80%. Moreover, the in vitro phase transition, sedimentation assay: share of the proteins in the condensed liquid phase against the molar ratio, highest at 1:3 Pon A1B3 to Numb PTB in [4] is above 90%.
As to Pon A2B2 fragment N152A; P153A, in experiment [5], the Kd was determined as 49.3 µM.
Regarding Pon 110-148 (B1A2) (domain or fragment), the figures for the Kd (in experiment [1]; with Numb PTB R171A [2]) were 8.77 µM and above 100 µM, respectively.

B1: Pon A3B3 fragment (peptide)
chain: VRSATTPAKGFVNPALNLRGSDAPASLNPFEIHRPSEASEAACN
Molecule B1 yielded a Kd in experiment [6] of 12.2 µM.

B2: Pon 124-148/130-148 (A2) (domain or fragment)
chain: KKREHACFENPGLNLELPE
Regarding B2, the Kd in experiment [7] is above 100 µM.

B3: Nak AB fragment (Numb-associated kinase, C-terminal A and B motifs) (peptide)
chain: QNSAKTGFSNMSFEDFPSDQEMDRLSRTIPFEVVRNEKML
For B3, the “stoichiometry N” value in experiment [8] was 1.

B4: Pon A2B2 K148A (domain or fragment)
chain: KKREHACFENPGLNLELPEAQFNPYEVVRSATT
In the case of B4, the dissociation constant (Kd) in [7] amounted to 0.48 ± 0.02 µM.

B5: Pon A2B2 Y154E (domain or fragment)
chain: B4 chain with A20K, Y25E
As for B5, the Kd in experiment [7] was above 100 µM.

B6: Pon A2B2 R158A (domain or fragment)
chain: B4 chain with A20K, R29A
With B6, in experiment [7], the dissociation constant (Kd) is above 100 µM.

B7: Pon single-AB fragment with N152,P153A in the B2 motif (peptide)
chain: KKKKREHACFENPGLNLELPEKQFAAYEVVRSA
In [9], B7 came in with a Kd of 49.3 µM.

B8: Pon A2B2 fragment (peptide)
chain: B7 chain with A25N, A26P
As to B8, the equilibrium dissociation constant (Kd) was above 100 µM with Numb PTB R171A [10] and 1.8 µM in [6].

B9: Pon single-AB fragment with R158A in the B2 motif (peptide)
chain: B7 chain with A25N, A26P, R31A
B9 returned an equilibrium dissociation constant (Kd) in experiment [9] above 100 µM.

B10: Pon A2B2 K149A (peptide)
chain: B7 chain with K22A, A25N, A26P
Molecule B10 displayed a Kd in experiment [9] of 5.46 µM.

B11: Pon single-AB fragment with Y154E in the B2 motif (peptide)
chain: B7 chain with A25N, A26P, Y27E
In experiment [9], B11 had a Kd above 100 µM.

B12: pPon peptide (peptide)
peptide: ESCFTNAAFSS[pT]PKK
notes: Pon, Drosophila; stretch with the A1 motif FTNAAF (N57) followed by the phosphorylated threonine; limits worked out by setting the Asn of FTNAAF to N57 of the A1 motif; source: synthetic peptide (commercially synthesized)
For B12, the dissociation constant Kd in [11] is around 11 µM.

B13: Pon 1-130/41-130 (A1B1) (domain or fragment)
chain: MLETKSIAALAFTETPRKRKRETLYKNAAPPPNPQQQPPEKDAQDAAVASTESCFTNAAFSSTPKKLMVARRRLAKENSQPNPFPGLEVKSIADLAQKQQHQQHHQQQQQQQQKLPTNPFEVLRQPPKKK
The molecule B13 returned a Kd in experiment [7] of 18.1 ± 2.2 µM.

B14: Pon single-AB fragment with E121A in the B1 motif (peptide)
chain: QQKLPTNPFAVLRQPPKKKKREHACFENPGLNLE
In the case of B14, the Kd in experiment [9] is above 100 µM.

B15: Pon B1A2 fragment (peptide)
chain: B14 chain with A10E
Consider B15, for which the equilibrium dissociation constant (Kd) in the experiment with Numb PTB R171A [10] was above 100 µM; in experiment [6] it was 8.77 µM.

B16: pPon peptide (peptide)
peptide: ESCFTNAAFSS[pT]PKK
notes: Pon, Drosophila; the peptide holds the A1 motif FTNAAF; the range is counted from N57 of the A1 motif; source: synthetic peptide
Turning to B16, in experiment [7], binding was characterised by a dissociation constant (Kd) of 11.3 ± 0.37 µM.

B17: Pon 1-116 (A1) (domain or fragment)
chain: MLETKSIAALAFTETPRKRKRETLYKNAAPPPNPQQQPPEKDAQDAAVASTESCFTNAAFSSTPKKLMVARRRLAKENSQPNPFPGLEVKSIADLAQKQQHQQHHQQQQQQQQKLP
Regarding B17, the equilibrium dissociation constant (Kd) in experiment [7] is around 70 µM.

B18: Pon A1 (peptide)
chain: AAVASTESCFTNAAFSST
For B18, the Kd in [6] is above 70 µM.

B19: Pon B1A2 E121A (domain or fragment)
chain: QQQQKLPTNPFAVLRQPPKKKKREHACFENPGLNLELPE
Consider B19, for which, in [7], the Kd was above 100 µM.
